Patent US7910100B2, “Antibodies directed to the mammalian EAG1 ion channel protein” (Max-Planck-Gesellschaft zur Forderung der Wissen, priority 2004, dated 2011)

B1: ImAb1: mouse monoclonal anti-Eag1 antibody; VL SEQ ID NO: 43, VH SEQ ID NO: 44; binds C-terminus of Eag1 (antibody, listed as Mus musculus)
heavy: MNFGFSLIFLVLVLKGVQCEVKLVESGGGLVKPGGSLKLSCAASGFTFSNYAMSWVRQTPEKRLEWVASISSDGDTYFPDNVKGRFTISRENAGNILFLQMSSLRSEDTAMYYCARGFMITFWGQGTLVTVSAAKTTPPSVYPLAPGCGDTTGSSVTLGCLVKGYFPESVTVTWNSGSLSSSVHTFPALLQSGLYTMSSSVTVPSSTWPSQTVTCSVAHPASSTTVD
light: MDMRAPAQFFGILLLWFPGIRCDIKMTQSPSSMYASLGERVTITCKASQDIKSYLSWYQQKPWKSPKILIYYATSLADGVPSRISGSGSGQDYSLTISSLESDDTATYYCLQHGESPYTFGGGTKLEIKRADAAPTVSIFPPSSEQLTSGGASVVCFLNNFYPKDINVKWKIDGSERQNGVLNSWTDQDSKDSTYSMSSTLTLTKDEYERHNSYTCEATHKTSTSPIVKSFNRNEC
B2: ImAb4: mouse monoclonal anti-Eag1 antibody, IgG2b kappa; light chain SEQ ID NO: 2, heavy chain SEQ ID NO: 4 (antibody, listed as Mus musculus)
heavy: MRVLILLWLFTAFPGILSDVQLQESGPGLVKPSQSLSLTCTVTGYSITSDYAWNWIRQFPGNKLEWMGYISYSGSTIYNPSLKSRISITRDTSKNQFFLQLNSVTTEDTATYYCARFGNYGNTLNYWGQGTSVTVSSAKTTPPSVYPLAPGCGDTTGSSVTLGCLVKGYFPESVTVTWNSGSLSSSVHTFPALLQSGLYTMSSSVTVPSSTWPSQTVTCSVAHPASSTTVDKKLEPSGPISTINPCPPCKECHKCPAPNLEGGPSVFIFPPNIKDVLMISLTPKVTCVVVDVSEDDPDVQISWFVNNVEVHTAQTQTHREDYNSTIRVVSTLPIQHQDWMSGKEFKCKVNNKDLPSPIERTISKIKGLVRAPQVYILPPPAEQLSRKDVSLTCLVVGFNPGDISVEWTSNGHTEENYKDTAPVLDSDGSYFIYSKLNMKTSKWEKTDSFSCNVRHEGLKNYYLKKTISRSPGK
light: MKLPVRLLVLMFWIPASSSDVVMTQTPLSLPVSLGDQASISCRSSQSLVHSNGNTYLHWYLQKPGQSPKLLIYKVSNRFSGVPDRFSGSGSGTDFTLKISRVEAEDLGVYFCSQSTHVPPTFGGGTKLEIKRADAAPTVSIFPPSSEQLTSGGASVVCFLNNFYPKDINVKWKIDGSERQNGVLNSWTDQDSKDSTYSMSSTLTLTKDEYERHNSYTCEATHKTSTSPIVKSFNRNEC

How the values were obtained:
Eag1 = test: BIAcore binding analysis on Eag1 C-terminus and H5 region; conditions: 10 μg/ml antibody, flow rate 20 μl/min; chips coated with Eag1 C-terminus (aa 694 to 962) or H5 region (aa 374 to 452)
Method: (§1) In order to analyse cross-reactivity of anti-Eag1 antibodies of the invention with the most homologous Eag family member Eag2 a BIAcore™ binding analysis was performed. BIAcore chips were coated with Eag1 C-terminus (amino acids 694 to 962), the H5 region (amino acids 374 to 452) or Eag2 (the equivalent regions fused in a single construct). The interaction with anti-Eag1 antibodies ImAb1 and ImAb3 were analysed using 10 μg/ml antibody at a flow rate of 20 μl/min.

Eag2 = test: BIAcore cross-reactivity with Eag family member Eag2; format: binding; conditions: 10 μg/ml antibody, flow rate 20 μl/min; chip coated with Eag2 equivalent regions
Method: as §1

IPC-298 melanoma cells = test: IPC-298 cell proliferation assay (AlamarBlue); format: cell-based, human; conditions: 5 μg/ml antibody, 7 days, pre-incubation with 40 mM KCl
Method: In vitro experiments were conducted in order to determine the ability of the antibodies of the invention to inhibit cancer cell proliferation. 1000 IPC-298 cells were seeded in 60 μl/well 10% FCS-containing medium (DMEM […] glucose) on 96-well plates overnight. Cells were pre-incubated in quadruplicates with 5 μg/ml anti-Eag1 monoclonal antibodies, ImAb1 and ImAb3, diluted in FCS-containing medium with 40 mM KCl for 1 h at 37° C. in 5% CO2. Treatment of the cells with 40 mM KCl ensures an open conformation of the ion channel Eag1 and might accelerate binding of the monoclonal anti-EAG1 antibodies to its corresponding epitope. After 1 h incubation, supernatants were removed and replaced with 100 μl/well FCS-containing medium with 5 μg/ml anti-Eag1 antibodies, ImAb1 and ImAb3. Cells were then incubated at 37° C. in 5% CO2 for 7 days. In order to assess proliferation and cell viability 10 μl/well AlamarBlue™ (BIOSOURCE) was added and incubated at 37° C. in the dark. Absorbance was measured using a spectrofluorometer at 590 nm every 30 min.

Eag1 currents = molecular target: T1, Eag1 currents (Homo sapiens, UniProt O95259); test: Whole cell patch clamp, Eag1 currents in transfected HEK293 cells; format: cell-based; conditions: 300 nM, control antibody
T1 construct: expressed in transfected cells; host or cells: HEK293
T1 sequence (O95259 1-962 isoform O95259-2): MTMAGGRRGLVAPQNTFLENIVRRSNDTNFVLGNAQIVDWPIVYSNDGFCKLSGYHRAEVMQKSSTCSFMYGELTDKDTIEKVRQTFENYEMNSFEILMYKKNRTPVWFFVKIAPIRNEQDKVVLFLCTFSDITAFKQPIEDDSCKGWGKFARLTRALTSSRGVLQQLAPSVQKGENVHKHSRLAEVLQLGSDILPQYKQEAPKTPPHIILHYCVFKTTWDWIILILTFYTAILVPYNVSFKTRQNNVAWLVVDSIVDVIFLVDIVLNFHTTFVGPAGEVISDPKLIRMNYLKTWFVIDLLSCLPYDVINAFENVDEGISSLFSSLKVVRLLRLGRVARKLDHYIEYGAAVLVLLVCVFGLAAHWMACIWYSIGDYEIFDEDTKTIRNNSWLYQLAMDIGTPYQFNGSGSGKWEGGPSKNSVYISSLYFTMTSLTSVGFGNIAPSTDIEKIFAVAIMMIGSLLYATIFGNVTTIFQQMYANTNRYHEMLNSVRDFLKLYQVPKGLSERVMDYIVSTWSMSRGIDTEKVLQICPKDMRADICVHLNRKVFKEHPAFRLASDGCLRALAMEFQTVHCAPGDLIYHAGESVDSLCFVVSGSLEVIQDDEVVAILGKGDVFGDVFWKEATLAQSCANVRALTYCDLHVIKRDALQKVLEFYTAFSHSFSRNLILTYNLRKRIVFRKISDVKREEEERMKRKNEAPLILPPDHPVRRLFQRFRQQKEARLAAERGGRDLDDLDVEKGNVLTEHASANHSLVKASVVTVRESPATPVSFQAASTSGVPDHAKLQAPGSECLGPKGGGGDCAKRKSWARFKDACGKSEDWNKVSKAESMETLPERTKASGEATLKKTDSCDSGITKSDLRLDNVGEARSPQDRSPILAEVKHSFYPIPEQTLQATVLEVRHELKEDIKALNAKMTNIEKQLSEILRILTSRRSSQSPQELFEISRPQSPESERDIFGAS
Method: To characterize effective affinity and specificity of the antibodies, block of Eag1 currents by ImAb3 in transfected HEK293 cells was tested in the whole cell configuration of the patch clamp technique. Currents were elicited by the depicted (FIG. 18a) pulse protocol (depolarization to +40 mV from a holding potential of −80 mV). Once a stable current level had been achieved, the antibody was applied to the bath chamber at a concentration of 300 nM, (approx 45 μg/ml). […] The antibody and the peptide were incubated (1:1 representing approximately 50 times molar excess of the peptide) at room temperature for 1 h and the mixture was used as described for the antibody alone.

Row | Molecule | binding region on Eag1 antigen (Eag1) | cross-reactivity with Eag2 (Eag2) | inhibition of cell proliferation (IPC-298 melanoma cells) | effect on current amplitudes (Eag1 currents)
1 | B1 | specifically binds to the C-terminus of the Eag1 antigen | do not cross-react with Eag2 | inhibit human cancer cell growth | –
2 | B2 | – | – | – | showed no effect on current amplitudes
